Reference: patent publication US20160200799A1
Positions count from the first letter of the chain named.

B1: Group 1 representative clone F080-227, Fab-PP-type antibody (Fab, V domains shown)
VH: QVQLQESGAEVKKPGSSVKVSCKASGGIFRRNAISWVRQAPGQGLEWMGGIIAIFGTANYAQKFQGRVTITADESTSTVYMELSSLRPEDTAVYYCARGPNYYENFFDYWGQGTLVTVSS
VL: DIVMTQSPSSLSASVGDRLDLTCRASQDIANSLAWYKQRPGKAPELLVFGASRLEGGVPSRFSGTRAGTDFTLTISSLQPEDLGTYFCQQYFSFPRTFGQGTTLDLR
B2: Group 47 representative clone F083-308, Fab-PP-type antibody (Fab, V domains shown)
VH: QVQLVQSGAEVKKPGSSVKVSCKASGGIFRSHAISWVRQAPGQGLEWMGGIIAIFGTTHYAQQFQGRVTITADESTSTVYMELSTLRSEDTAVYYCARGPNYFESYFDNWGQGTLVTVSS
VL: EIVLTQSPATLSLSPGERATLSCRASQTISSYLAWYQQKPGQAPRLLIYGASNRATGIPARFSGSGSGTDFTLTINSLEPEDFAVYYCQQRSSWPPITFGQGTRLEIK
B3: Group 48 representative clone F083-389, Fab-PP-type antibody (Fab, V domains shown)
VH: QVQLVQSGAEVKKPGSSVKVSCKASGDIFNKFAITWVRQAPGQGLEWMGGITALFATTSYAQKFQDRVTINWDESTTTAFMELSSLRFEDTAVYYCARGPNYYETYLDNWGQGTLVTVSS
VL: EIVLTQSPTILSASVGDRVTITCRASQSISKWLAWYQQKPGKVPKLLIYMASTLESGVPSRFSGSGSGSEFTLTISSLQPGDFATYYCQQYNSYPRTFGQGTKVEINV
B4: Group 3 representative clone F081-281, Fab-PP-type antibody (Fab, V domains shown)
VH: QVQLVQSGSEVKKPGSSVKVSCSFKASGGIISKYAITWVRQAPGQGLEWMGGIIAIFGSTNYAQKFQGRLTITSDESTSTAYMELSSLTSEDTAVYYCGRGPHYYESHLDYWGQGTLVTVSS
VL: EIVLTQSPGTLSLSPGERATLSCRASQGMSSSFLAWYQQKPGQPPRLLISGASTRATGIPDRFSGSGSGTDFTLTINRLEPEDFAVYYCQQYGSSPRTFGQGTKVEIK
B5: Group 35 representative clone F082-117, Fab-PP-type antibody (Fab, V domains shown)
VH: QVQLVQSGSEVKKPGSSVKVSCKSSGGILRRSAISWVRQAPGQGLEWMGGILAIFGTTKYAQKFQGRITITADESTNTVHMELSSLRPDDTAVYYCAGGPHYYVSYFDSWGQGTLVTVSS
VL: DIQMTQSPATLSLSPGERATLSCRASQSVRSYLAWYQQKPGQAPRLLIYDASNRATGIPARFSGSGSGTEFTLTISRLEPEDFAVYYCQQRSNWLFTFGPGTKVDFK
B6: Group 39 representative clone F082-237, Fab-PP-type antibody (Fab, V domains shown)
VH: QVQLVQSGAEVKKPGSSVKVSCKASGGIFNKYGISWVRQAPGQGLEWMGGILAIFGTTNYAQKFQGRVTISADESSTTVYMELSSLTSEDTAVYYCARGNTYYSSYFDQWGQGTLVTVSS
VL: QSVLTQPPSVSVAPGQTATITCGGDKIGTGPVHWYQQMPGRAPVLLIYASTHRPSRIPERFSGSKSDNTATLSISGVGVGDEADYYCQMWDSSSVHPIVFGGGTKLTVLS
B7: Group 54 representative clone F083-354, Fab-PP-type antibody (Fab, V domains shown)
VH: B6 VH with A9S, K31S, S71T, E74D, T77K, N100S
VL: DIQMTQSPSSLSASVGDRVTITCRASQGIRNSLAWYQQKPGQVPKLLIYSATTLRSGVPYRFSGSGSGTDFTLTISGLQPEDVGTYFCHRYDSAPLTFGGGTRVALK
B8: Group 37 representative clone F083-311, Fab-PP-type antibody (Fab, V domains shown)
VH: QVQLVQSGSEVKKPGSSVKVSCKASGGIFRTNAISYVRQAPGQGLEWMGGITAIFGTPNYAQKFQGRVTIIADESTSTVYMELGSLTSEDTAVYYCATSGTYYVSYFDSWGQGTLVTVSS
VL: DIVMTQSPGTLTLSPGERATLSCRASQSLYSSHLAWYQQKPGQPPRLLIYGASTRAPGTPDRFSGSGSGTDFTLTITALDPEDSAVYYCQQYGSSPITFGQGTRLEIK
B9: Group 52 representative clone F083-328, Fab-PP-type antibody (Fab, V domains shown)
VH: QVQLVQSGAEVKKPGSSVKLSCKASGGTLRSYALSWVRQAPGEGLEWMGGISAIFNTATYAQNVQGRVTITADESTNTFYLEVSSLRSDDTAVYYCATSGTYYVSFFDYWGQGTLVTVSS
VL: DIVLTQSPSTLSASVGDRVTLTCRASQSIGSLMAWYQQQPGKPPKLLIYRASNLETGVPSRFTGSGSGTEFALTISSLQPDDVGTYYCQHFKTFSRTFGQGTKVEIK
B10: Group 42 representative clone F083-249, Fab-PP-type antibody (Fab, V domains shown)
VH: QVQLVQSGSEVKKPGSSVKVSCKASGVTFSSYAISWVRQAPGQGLEWMGGISPMFGTTRYAQKFQGRVTITADESTRTGFMELSSLRSGDTAVYYCARSPTYYPGALDMWGQGTTVTVSS
VL: DVVMTQSPSLLSASVGDRVTITCRASQAIANFVSWFQQKPGEAPKSLIHAASTLQGGVPPRFSGSGYGAVFTLTITNLQPEDFATYFCQQYNSLPFTFGPGTDVEVR
B11: Group 55 representative clone F083-305, Fab-PP-type antibody (Fab, V domains shown)
VH: EVQLVESGAEVKKPGSSVKVSCKASGSIFSNYAISWVRQAPGQGLEWMGGIVPMFGTTRFAQKFQGRVTITADESRSTAYMELNNLISEDTAVYYCARAPLIYNWYFDLWGRGTLVTVSS
VL: EIVLTQSPSFVSASVGDRVSITCRASQGISSWLAWYQQKPGKAPRLLIYGASNLQSGVPSRFSGSGSGTDYTLTINSLQPEDFATYYCQQARTFPVTFGQGTKLEIK
B12: Group 56 representative clone F083-318, Fab-PP-type antibody (Fab, V domains shown)
VH: B11 VH with E6Q, K23Q, S35N, M54I, V68L, S75P, F107Y
VL: EIVLTQSPSSLSASVGDRVTITCRASQGISNYLAWYQQKPGKVPKLLIYAASTLQSGVPSRFSGSGSGTDFTLTISSLQPEDVATYYCQKYNSAPHTFGPGTKVDIK

Each binder was assayed against Influenza virus A/Suita/1/2009pdm (H1N1 2009 pandemic) (Influenza A virus A/Suita/1/2009pdm (H1N1pdm)) (assay: cell-based or functional assay).

| Binder | Neutralizing activity (%) at 100 µg/ml [%] | Neutralizing activity (%) at 250 µg/ml [%] |
| --- | --- | --- |
| B1 | 100 | 100 |
| B2 | 97.7 | 100 |
| B3 | -18.3 | 100 |
| B4 | 100 | 100 |
| B5 | 100 | 100 |
| B6 | 95.3 | 100 |
| B7 | 100 | 94.2 |
| B8 | 93 | 100 |
| B9 | 100 | 100 |
| B10 | 100 | 97.7 |
| B11 | 88.3 | 69.5 |
| B12 | 13.5 | 27.9 |

Each binder was assayed against Influenza virus A/Brisbane/59/2007 (H1N1) (Influenza A virus A/Brisbane/59/2007 (H1N1)) (assay: cell-based or functional assay).

| Binder | HI activity [µg/mL] | Neutralizing activity (%) at 100 µg/ml [%] | Neutralizing activity (%) at 250 µg/ml [%] |
| --- | --- | --- | --- |
| B1 | > 160 | 96 | 98 |
| B2 | > 160 | 100 | 100 |
| B3 | > 160 | 98 | 100 |
| B4 | > 160 | 98 | 100 |
| B5 | > 160 | 100 | 100 |
| B6 | > 160 | 48.7 | 64.5 |
| B7 | > 160 | 96.1 | 100 |
| B8 | > 160 | 100 | 100 |
| B9 | > 160 | 100 | 100 |
| B10 | > 160 | 100 | 100 |
| B11 | > 160 | 96.1 | 96.1 |
| B12 | > 160 | 84.2 | 92.1 |

These binders were tested against Influenza virus A/Panama/2007/1999 (H3N2) (Influenza A virus A/Panama/2007/1999 (H3N2)) (assay: cell-based or functional assay).

| Binder | Neutralizing activity (%) at 100 µg/ml [%] | Neutralizing activity (%) at 250 µg/ml [%] |
| --- | --- | --- |
| B1 | -0.7 | -0.7 |
| B2 | 1.4 | -6.8 |
| B3 | -0.7 | 19.9 |
| B4 | -11.6 | -8.9 |
| B5 | 3.4 | -4.8 |
| B6 | -2.7 | 15.8 |
| B7 | -0.7 | -11 |
| B8 | -8.9 | 5.5 |
| B9 | 9.6 | 5.5 |
| B10 | 15.8 | 34.2 |
| B11 | -17.1 | -6.8 |
| B12 | 7.5 | 7.5 |

Each binder was assayed against Influenza virus A/Indonesia/5/2005/PR8-IBCDC-RG2 (H5N1) (Influenza A virus A/Indonesia/5/2005/PR8-IBCDC-RG2 (H5N1)) (assay: cell-based or functional assay).

| Binder | Neutralizing activity (%) at 100 µg/ml [%] | Neutralizing activity (%) at 250 µg/ml [%] |
| --- | --- | --- |
| B1 | 67.6 | 52.9 |
| B2 | 29.4 | 49.4 |
| B3 | 54.6 | 60.8 |
| B4 | 81.8 | 85.9 |
| B5 | 94.1 | 95.9 |
| B6 | 31.2 | 41.2 |
| B7 | 66.4 | 80.7 |
| B8 | 90 | 97.1 |
| B9 | 86.9 | 93.2 |
| B10 | 96.5 | 98.2 |
| B11 | 2.4 | 22.4 |
| B12 | -9.5 | 1.7 |

The binders below were run against Influenza virus A/California/7/2009pdm (H1N1pdm) (Influenza A virus A/California/7/2009pdm (H1N1pdm)) (assay: cell-based or functional assay).

| Binder | HI activity [µg/mL] |
| --- | --- |
| B1 | > 160 |
| B2 | > 160 |
| B3 | > 160 |
| B4 | > 160 |
| B5 | > 160 |
| B6 | > 160 |
| B7 | > 160 |
| B8 | > 160 |
| B9 | > 160 |
| B10 | > 160 |
| B11 | > 160 |
| B12 | > 160 |
